In assay [1] the target is histidine-tagged JAM-A (human) (UniProt Q9Y624). Kind of assay: non-reducing gel electrophoresis.
The target in assay [2] is recombinant human JAM-A (Junctional Adhesion Molecule-A) (human) (UniProt Q9Y624). Kind of assay: non-reducing gel electrophoresis.

This passage reports stoichiometry N results from publication PMC11874374.

The term stoichiometry N denotes the number of molecules, sites or subunits per partner or assembly. “histidine-tagged JAM-A (from UniProt Q9Y624 28-299) (natural protein)” showed a stoichiometry N in assay [1] of 2.
Consider “recombinant human JAM-A (Junctional Adhesion Molecule-A) (from UniProt Q9Y624 28-299) (natural protein)”, for which the stoichiometry N in assay [2] is 3.
